Substrate in the series: C[S+](CC[C@H](N)C(=O)[O-])C[C@H]1O[C@@H](n2cnc3c(N)ncnc32)[C@H](O)[C@@H]1O
The series can be described thus: purified protein. The note with it: pyruvoyl group (converted Ser68).

The Km is the concentration of substrate that gives half-maximal velocity.

B1: human S-adenosylmethionine decarboxylase (hAdoMetDC) (Homo sapiens) (protein)
chain 1: MEAAHFFEGTEKLLEVWFSRQQPDANQGSGDLRTIPRSEWDILLKDVQCSIISVTKTDKQEAYVLSE
chain 2: SSMFVSKRRFILKTCGTTLLLKALVPLLKLARDYSGFDSIQSFFYSRKNFMKPSHQGYPHRNFQEEIEFLNAIFPNGAAYCMGRMNSDCWYLYTLDFPESRVISQPDQTLEILMSELDPAVMDQFYMKDGVTAKDVTRESGIRDLIPGSVIDATMFNPCGYSMNGMKSDGTYWTIHITPEPEFSYVSFETNLSQTSYDDLIRKVVEVFKPGKFVTTLFVNQSSKCRTVLASPQKIEGFKRLDCQSAMFNDYNFVFTSFAKKQQQQQS
For the protein B1, the Km worked out at 3.1 ± 1.8 µM.

These data come from paper PMC5377238.
